The values below come from article PMC4164784, “4E-BPs require non-canonical 4E-binding motifs and a lateral surface of eIF4E to repress translation” (Nature Communications, 2014).

A word on the Kd: it is the free concentration of one partner at which half of the binding sites on the other are occupied at equilibrium, for simple one-to-one binding. Low readings indicate a tighter complex, high ones a looser complex.

No end group written: not given here.

The target of assay [1] is T1, Dm eIF4E II-AA mutant (I96A, I112A; residues 69–248) (Drosophila melanogaster, UniProt P48598, I107A/I123A).
T1 construct: The solution of eIF4E (residues 69–248, WT or mutant: 1–20 μM) in the calorimetric cell; His6 (N, cleaved yes); made in house; host or cells: E. coli BL21 Star (DE3)
T1 sequence (P48598 80-259 I107A/I123A): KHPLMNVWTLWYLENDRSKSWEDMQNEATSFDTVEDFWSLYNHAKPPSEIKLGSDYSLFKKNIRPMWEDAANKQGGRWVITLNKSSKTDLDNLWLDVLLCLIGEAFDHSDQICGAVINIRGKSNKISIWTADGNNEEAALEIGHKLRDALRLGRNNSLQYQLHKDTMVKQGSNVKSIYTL
Nature of the assay: ITC, binding to eIF4E II-AA mutant (residues 69–248). To be noted: for affinity for eIF4E II-AA mutant relative to WT (in words): bipartite peptides (C+NC) or eIF4G, lateral-surface mutant vs WT. The method, then: Unless indicated otherwise, all the proteins were expressed in E. coli BL21 Star (DE3) cells (Invitrogen) that were grown in LB medium overnight at 20 °C. The lysis buffers were supplemented with DNaseI (5 μg ml^−1), lysozyme (1 mg ml^−1) and protease inhibitor cocktail (Roche). The truncated His6-eIF4E (residues 69–248) that was used in the ITC experiments and in Figs 2c and 5b was purified in lysis buffer containing 50 mM HEPES (pH 7.2), 300 mM NaCl, 20 mM imidazole and 2 mM β-mercaptoethanol using Ni^2+-affinity chromatography (HisTrap HP 5 ml, GE Healthcare) and eluted with a gradient of 20–500 mM imidazole. After the cleavage of the His6-tag with HRV3C protease (homemade), the protein was further purified using a heparin column (HiTrap Heparin HP 5 ml, GE Healthcare), followed by size exclusion chromatography (Superdex 75 16/60, GE Healthcare) in 20 mM Na-phosphate (pH 7.0), 300 mM NaCl and 2 mM dithiothreitol (DTT).
For the ITC measurements and the competition assays shown in Figs 4 and 5d–g, the 4E-BP peptides corresponding to the canonical (C) motifs, the combined (C+NC) motifs or L+NC were expressed with an HRV3C cleavable N-terminal MBP-tag and a non-cleavable C-terminal GB1 domain. The cells were lysed by sonication in lysis buffer containing 50 mM HEPES (pH 7.2), 300 mM NaCl and 2 mM DTT. The proteins were purified from the cleared lysates using amylose resin (New England Biolabs) followed by the cleavage of the MBP tag with HRV3C protease overnight at 4 °C. The proteins were further purified by size exclusion chromatography (Superdex 75 16/60, GE Healthcare) in 20 mM Na-phosphate (pH 7.0), 300 mM NaCl and 2 mM DTT. For the eIF4G fragment (residues 578–650) the MBP was removed after cleavage with TEV protease through an additional anion exchange chromatography (HiTrap Q HP 5 ml, GE Healthcare) before the final gel filtration.
The ITC experiments were performed using a VP-ITC microcalorimeter (MicroCal) at 20 °C. The solution of eIF4E (residues 69–248, WT or mutant: 1–20 μM) in the calorimetric cell was titrated with tenfold concentrated solutions of GB1-stabilized peptides corresponding to 4E-BPs C+NC (10 μM), C (50 μM), L+NC (100 μM CUP, 200 μM Thor and 4E-T) or eIF4G (residues 578–650, 20 μM) that were dissolved in the same buffer (20 mM Na-phosphate (pH 7.0) and 150 mM NaCl). The titration experiments consisted of an initial injection of 2 μl followed by 28 injections of 10 μl at an interval of 240 s. Each binding experiment was repeated twice. The thermodynamic parameters were estimated using a one-site binding model (Origin version 7.0), whereby the datapoint of the first injection was removed for the analysis.
mutant (residues 69-248) and CUP (a), Thor (b), 4E-T (c) and eIF4G (d) peptides. The
measurements were performed as described in Supplementary Fig. 3. The solutions
contained the 4E-BP C+NC peptides (10 µM) and 20 µM for the eIF4G peptide. The eIF4E
II-AA mutant concentration in the calorimetric cell was 5 µM.
For orientation: Isothermal titration calorimetry measures the heat released or taken up as one component is titrated into another.

Assay [2] deals with T2, eIF4E–eIF4G complex (eIF4E WT; eIF4G residues 578–650) (Drosophila melanogaster, UniProt P48598).
T2 construct: full-length eIF4E (WT or the II-AA mutant) containing an N-terminal SNH-tag was coexpressed; made in house; host or cells: E. coli BL21 Star (DE3), coexpression
T2 sequence (P48598 1-248 isoform P48598-2): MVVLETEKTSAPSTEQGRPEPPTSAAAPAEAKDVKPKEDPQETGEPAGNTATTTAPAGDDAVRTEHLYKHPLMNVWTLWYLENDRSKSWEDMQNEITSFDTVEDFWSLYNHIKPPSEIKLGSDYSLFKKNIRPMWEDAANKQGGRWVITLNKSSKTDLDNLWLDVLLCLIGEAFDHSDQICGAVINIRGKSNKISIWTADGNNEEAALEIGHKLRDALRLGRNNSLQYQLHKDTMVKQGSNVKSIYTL
Put plainly: Competition assay, displacement of GST-eIF4G from preassembled eIF4E (WT)–eIF4G complexes. The note with it: for displacement of eIF4G from eIF4E WT–eIF4G complex (in words): 2–20 μM GB1-fused competitor, Strep-Tactin pull down; for competition with eIF4G for eIF4E WT (in words): Fig. 5a,c, fivefold molar excess of MBP-tagged competitor, 30 min at 4 °C, m7GTP or Strep-Tactin pull down. Format: biochemical. The method, then:
For the competition assays shown in Figs 5a,c and 6a,b, complexes containing SHN- or MBP-tagged eIF4E (WT or II-AA mutant) bound to GST-eIF4G (residues 578–650), GST-Thor (full length), GST-4E-T (residues 1–58) or GST-CUP (311–440) were obtained by coexpressing the corresponding proteins in E. coli BL21 (DE3) STAR cells (30 ml culture). The cells were resuspended in lysis buffer (5 ml) that was supplemented with EDTA-free protease inhibitor (Roche) and 1 mg ml^−1 lysozyme and lysed by sonication. The cleared lysates were incubated with 400 μl of Protino Glutathione Agarose 4B (Macherey-Nagel) for 1 h. The beads were washed three times with lysis buffer, and the proteins were eluted after 10 min of incubation with lysis buffer containing 25 mM L-glutathione. The protein complexes were stored at −20 °C or used in competition assays.
The purified recombinant complexes were mixed with excess amounts of the indicated purified competitor proteins (Fig. 5c) or with bacterial lysates expressing the competitor proteins (Figs 5a and 6) and incubated for 30 min at 4 °C. After incubation, 20 μl of immobilized γ-Aminophenyl-m^7GTP or Strep-Tactin Sepharose (IBA), were added to the samples and incubated for another 40 min at 4 °C. The beads were washed three times with lysis buffer and eluted with lysis buffer containing 2.5 mM desthiobiotin (Strep-Tactin Sepharose) or with 20 μl of SDS–PAGE loading buffer (Aminophenyl-m^7GTP beads). The proteins were analyzed by 10–15% SDS–PAGE followed by staining with Coomassie blue staining. […]

Where [3] appears, read: eIF4E II-AA (69–248), 20 °C, pH 7.0.
The mark [4] stands for this setting: Fig. 4, 2 μM complex, 20 min at 4 °C, n=2.

Consider “4E-T C+NC: 4E-T residues 9–44, eIF4E-binding region short, C-terminal GB1”, for which the “affinity for eIF4E II-AA mutant relative to WT (in words)” value in assay [1] was “not significantly affected”. In assay [1] (setting [3]), this substance registered a TΔS of 2.16 kcal/mol and a ΔG of -10.80 kcal/mol. The “displacement of eIF4G from eIF4E WT–eIF4G complex (in words)” value (“displacement of eIF4G” for short) in assay [2] (setting [4]) is “displaced eIF4G from the complex and associated with eIF4E”.

As for “CUP C+NC: CUP residues 325–376, eIF4E-binding region short, C-terminal GB1 (KSYTRSRLMDIRNGMFNALMHRSKESFVMPRIATCDDIELEGRLRRMNIWRT-GB1; UniProt Q9VMA3 325-376, looked up, fragment)”, binding in assay [1] (VP-ITC, 20 °C, 20 mM Na-phosphate (pH 7.0), 150 mM NaCl, GB1-fused C+NC peptides (10 μM) or eIF4G (20 μM) into eIF4E II-AA 5 μM, one-site model, each experiment repeated twice) was put at a Kd of 50 nM. Moreover, the “affinity for eIF4E II-AA mutant relative to WT (in words)” value in assay [1] is “reduced by one and two orders of magnitude, respectively”. Moreover, in assay [1] (setting [3]), the TΔS came to 8.79 kcal/mol, the ΔG was -9.84 kcal/mol and the ΔH is -18.6 ± 0.7 kcal/mol. In addition, the “displacement of eIF4G” value in assay [2] (setting [4]) is “displaced eIF4G from the complex and associated with eIF4E”. The “molar excess at which eIF4G was effectively displaced” value in assay [2] (Fig. 4, 2 μM complex, GB1-fused C+NC competitor, 20 min at 4 °C, n=2) was “two”. Besides, the “competition with eIF4G for eIF4E WT (in words)” value in assay [2] is “efficiently displaced preassembled eIF4G”.

In the case of “Thor C+NC: Thor residues 50–83, eIF4E-binding region short, C-terminal GB1 (TKLIYERAFMKNLRGSPLSQTPPSNVPSCLLRGT-GB1; UniProt Q9XZ56 50-83, looked up, fragment)”, in assay [1], the “affinity for eIF4E II-AA mutant relative to WT (in words)” value is “reduced by one and two orders of magnitude, respectively”. In assay [1] (setting [3]), this substance registered a TΔS of -0.91 kcal/mol and a ΔG of -8.46 kcal/mol. Moreover, in assay [2] (setting [4]), the “displacement of eIF4G” value is “displaced eIF4G from the complex and associated with eIF4E”.

On to “Thor C: Thor residues 50–63, canonical motif”, for which the “competition with eIF4G for eIF4E WT (in words)” value in assay [2] is listed as “abolished competition”.
